Measured values taken from the supplement of paper PMC5998384.

Legend:
HeLa Kyoto [1] = experiment: melting temperature (median over replicates), in situ; higher = more thermally stable
HeLa Kyoto [2] = experiment: thermal stability score vs G1/S (z-score of summed log2 fold changes over temperatures); higher = more thermally stable than in G1/S
[3] = cell cycle stage: early G1 (4.5 h after nocodazole release)
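Wherever melting temperature (median over replicates), in situ is given: HeLa Kyoto cells synchronized by double thymidine or nocodazole block, proteins quantified by TMT10plex mass spectrometry, three independent biological replicates.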
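Wherever thermal stability score vs G1/S (z-score of summed log2 fold changes over temperatures) is given: synchronized HeLa Kyoto cells, proteins quantified by TMT10plex mass spectrometry, three biological replicates, mitosis taken 0.5 h after nocodazole release, G1/S directly after double thymidine block.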

LSM5, sequence (chain, as listed by the source): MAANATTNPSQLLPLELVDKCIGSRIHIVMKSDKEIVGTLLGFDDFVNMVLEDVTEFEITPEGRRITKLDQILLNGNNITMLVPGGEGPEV

| Substance | melting temperature (HeLa Kyoto [1]; cell cycle stage: G1/S) | melting temperature (HeLa Kyoto [1]; cell cycle stage: mitosis) | thermal stability score (HeLa Kyoto [2]; [3]) | thermal stability score (HeLa Kyoto [2]; cell cycle stage: mitosis) |
| --- | --- | --- | --- | --- |
| LSM5 | 55.9 °C | 52.9 °C | -2.66 | -1.99 |
| MDDSGELGGLETMETLTELGDELTLGDIDEMLQFVSNQVGEFPDLFSEQLCSSFPGSGGSGSSSGSSGSSSSSSNGRGSSSGAVDPSVQRSFTQVTLPSFSPSAASPQAPTLQVKVSPTSVPTTPRATPILQPRPQPQPQPQTQLQQQTVMITPTFSTTPQTRIIQQPLIYQNAATSFQVLQPQVQSLVTSSQVQPVTIQQQVQTVQAQRVLTQTANGTLQTLAPATVQTVAAPQVQQVPVLVQPQIIKTDSLVLTTLKTDGSPVMAAVQNPALTALTTPIQTAALQVPTLVGSSGTILTTMPVMMGQEKVPIKQVPGGVKQLEPPKEGERRTTHNIIEKRYRSSINDKIIELKDLVMGTDAKMHKSGVLRKAIDYIKYLQQVNHKLRQENMVLKLANQKNKLLKGIDLGSLVDNEVDLKIEDFNQNVLLMSPPASDSGSQAGFSPYSIDSEPGSPLLDDAKVKDEPDSPPVALGMVDRSRILLCVLTFLCLSFNPLTSLLQWGGAHDSDQHPHSGSGRSVLSFESGSGGWFDWMMPTLLLWLVNGVIVLSVFVKLLVHGEPVIRPHSRSSVTFWRHRKQADLDLARGDFAAAAGNLQTCLAVLGRALPTSRLDLACSLSWNVIRYSLQKLRLVRWLLKKVFQCRRATPATEAGFEDEAKTSARDAALAYHRLHQLHITGKLPAGSACSDVHMALCAVNLAECAEEKIPPSTLVEIHLTAAMGLKTRCGGKLGFLASYFLSRAQSLCGPEHSAVPDSLRWLCHPLGQKFFMERSWSVKSAAKESLYCAQRNPADPIAQVHQAFCKNLLERAIESLVKPQAKKKAGDQEEESCEFSSALEYLKLLHSFVDSVGVMSPPLSRSSVLKSALGPDIICRWWTSAITVAISWLQGDDAAVRSHFTKVERIPKALEVTESPLVKAIFHACRAMHASLPGKADGQQSSFCHCERASGHLWSSLNVSGATSDPALNHVVQLLTCDLLLSLRTALWQKQASASQAVGETYHASGAELAGFQRDLGSLRRLAHSFRPAYRKVFLHEATVRLMAGASPTRTHQLLEHSLRRRTTQSTKHGEVDAWPGQRERATAILLACRHLPLSFLSSPGQRAVLLAEAARTLEKVGDRRSCNDCQQMIVKLGGGTAIAAS [SREBF2] |  |  | 7.8e-18 | 1.52e-16 |
| MGAALGTGTRLAPWPGRACGALPRWTPTAPAQGCHSKPGPARPVPLKKRGYDVTRNPHLNKGMAFTLEERLQLGIHGLIPPCFLSQDVQLLRIMRYYERQQSDLDKYIILMTLQDRNEKLFYRVLTSDVEKFMPIVYTPTVGLACQHYGLTFRRPRGLFITIHDKGHLATMLNSWPEDNIKAVVVTDGERILGLGDLGCYGMGIPVGKLALYTACGGVNPQQCLPVLLDVGTNNEELLRDPLYIGLKHQRVHGKAYDDLLDEFMQAVTDKFGINCLIQFEDFANANAFRLLNKYRNKYCMFNDDIQGTASVAVAGILAALRITKNKLSNHVFVFQGAGEAAMGIAHLLVMALEKEGVPKAEATRKIWMVDSKGLIVKGRSHLNHEKEMFAQDHPEVNSLEEVVRLVKPTAIIGVAAIAGAFTEQILRDMASFHERPIIFALSNPTSKAECTAEKCYRVTEGRGIFASGSPFKSVTLEDGKTFIPGQGNNAYVFPGVALGVIAGGIRHIPDEIFLLTAEQIAQEVSEQHLSQGRLYPPLSTIRDVSLRIAIKVLDYAYKHNLASYYPEPKDKEAFVRSLVYTPDYDSFTLDSYTWPKEAMNVQTV [ME3] |  |  | -5.4 | -4.14 |
| MKSLVLLLCLAQLWGCHSAPHGPGLIYRQPNCDDPETEEAALVAIDYINQNLPWGYKHTLNQIDEVKVWPQQPSGELFEIEIDTLETTCHVLDPTPVARCSVRQLKEHAVEGDCDFQLLKLDGKFSVVYAKCDSSPDSAEDVRKVCQDCPLLAPLNDTRVVHAAKAALAAFNAQNNGSNFQLEEISRAQLVPLPPSTYVEFTVSGTDCVAKEATEAAKCNLLAEKQYGFCKATLSEKLGGAEVAVTCMVFQTQPVSSQPQPEGANEAVPTPVVDPDAPPSPPLGAPGLPPAGSPPDSHVLLAAPPGHQLHRAHYDLRHTFMGVVSLGSPSGEVSHPRKTRTVVQPSVGAAAGPVVPPCPGRIRHFKV [AHSG] |  |  | -0.0372 | -0.632 |
| MNCRSEVLEVSVEGRQVEEAMLAVLHTVLLHRSTGKFHYKKEGTYSIGTVGTQDVDCDFIDFTYVRVSSEELDRALRKVVGEFKDALRNSGGDGLGQMSLEFYQKKKSRWPFSDECIPWEVWTVKVHVVALATEQERQICREKVGEKLCEKIINIVEVMNRHEYLPKMPTQSEVDNVFDTGLRDVQPYLYKISFQITDALGTSVTTTMRRLIKDTLAL [ATG101] |  |  | 0.111 | 1.17 |
| MNSGVAMKYGNDSSAELSELHSAALASLKGDIVELNKRLQQTERERDLLEKKLAKAQCEQSHLMREHEDVQERTTLRYEERITELHSVIAELNKKIDRLQGTTIREEDEYSELRSELSQSQHEVNEDSRSMDQDQTSVSIPENQSTMVTADMDNCSDLNSELQRVLTGLENVVCGRKKSSCSLSVAEVDKHIEQLTTASEHCDLAIKTVEEIEGVLGRDLYPNLAEERSRWEKELAGLREENESLTAMLCSKEEELNRTKATMNAIREERDRLRRRVRELQTRLQSVQATGPSSPGRLTSTNRPINPSTGELSTSSSSNDIPIAKIAERVKLSKTRSESSSSDRPVLGSEISSIGVSSSVAEHLAHSLQDCSNIQEIFQTLYSHGSAISESKIREFEVETERLNSRIEHLKSQNDLLTITLEECKSNAERMSMLVGKYESNATALRLALQYSEQCIEAYELLLALAESEQSLILGQFRAAGVGSSPGDQSGDENITQMLKRAHDCRKTAENAAKALLMKLDGSCGGAFAVAGCSVQPWESLSSNSHTSTTSSTASSCDTEFTKEDEQRLKDYIQQLKNDRAAVKLTMLELESIHIDPLSYDVKPRGDSQRLDLENAVLMQELMAMKEEMAELKAQLYLLEKEKKALELKLSTREAQEQAYLVHIEHLKSEVEEQKEQRMRSLSSTSSGSKDKPGKECADAASPALSLAELRTTCSENELAAEFTNAIRREKKLKARVQELVSALERLTKSSEIRHQQSAEFVNDLKRANSNLVAAYEKAKKKHQNKLKKLESQMMAMVERHETQVRMLKQRIALLEEENSRPHTNETSL [MCC] |  |  | 0.157 | -0.438 |
| MRRGERRDAGGPRPESPVPAGRASLEEPPDGPSAGQATGPGEGRRSTESEVYDDGTNTFFWRAHTLTVLFILTCTLGYVTLLEETPQDTAYNTKRGIVASILVFLCFGVTQAKDGPFSRPHPAYWRFWLCVSVVYELFLIFILFQTVQDGRQFLKYVDPKLGVPLPERDYGGNCLIYDPDNETDPFHNIWDKLDGFVPAHFLGWYLKTLMIRDWWMCMIISVMFEFLEYSLEHQLPNFSECWWDHWIMDVLVCNGLGIYCGMKTLEWLSLKTYKWQGLWNIPTYKGKMKRIAFQFTPYSWVRFEWKPASSLRRWLAVCGIILVFLLAELNTFYLKFVLWMPPEHYLVLLRLVFFVNVGGVAMREIYDFMDDPKPHKKLGPQAWLVAAITATELLIVVKYDPHTLTLSLPFYISQCWTLGSVLALTWTVWRFFLRDITLRYKETRWQKWQNKDDQGSTVGNGDQHPLGLDEDLLGPGVAEGEGAPTPN [PTDSS2] |  |  | -0.906 | -3.56 |
| MSGGDTRAAIARPRMAAAHGPVAPSSPEQVTLLPVQRSFFLPPFSGATPSTSLAESVLKVWHGAYNSGLLPQLMAQHSLAMAQNGAVPSEATKRDQNLKRGNWGNQIEFVLTSVGYAVGLGNVWRFPYLCYRNGGGAFMFPYFIMLIFCGIPLFFMELSFGQFASQGCLGVWRISPMFKGVGYGMMVVSTYIGIYYNVVICIAFYYFFSSMTHVLPWAYCNNPWNTHDCAGVLDASNLTNGSRPAALPSNLSHLLNHSLQRTSPSEEYWRLYVLKLSDDIGNFGEVRLPLLGCLGVSWLVVFLCLIRGVKSSGKVVYFTATFPYVVLTILFVRGVTLEGAFDGIMYYLTPQWDKILEAKVWGDAASQIFYSLGCAWGGLITMASYNKFHNNCYRDSVIISITNCATSVYAGFVIFSILGFMANHLGVDVSRVADHGPGLAFVAYPEALTLLPISPLWSLLFFFMLILLGLGTQFCLLETLVTAIVDEVGNEWILQKKTYVTLGVAVAGFLLGIPLTSQAGIYWLLLMDNYAASFSLVVISCIMCVAIMYIYGHRNYFQDIQMMLGFPPPLFFQICWRFVSPAIIFFILVFTVIQYQPITYNHYQYPGWAVAIGFLMALSSVLCIPLYAMFRLCRTDGDTLLQRLKNATKPSRDWGPALLEHRTGRYAPTIAPSPEDGFEVQPLHPDKAQIPIVGSNGSSRLQDSRI [SLC6A9] |  |  | -0.03 | 1.01 |
| SPG11 |  |  | -0.413 | -0.459 |
